{
  "source": "paper PMC8455617",
  "about": "(2021)",
  "molecules": {"B1": {"name": "malate dehydrogenase, mitochondrial (protein)", "chain": "AKVAVLGASGGIGQPLSLLLKNSPLVSRLTLYDIAHTPGVAADLSHIETRATVKGYLGPEQLPDCLKGCDVVVIPAGVPRKPGMTRDDLFNTNATIVATLTAACAQHCPDAMICIISNPVNSTIPITAEVFKKHGVYNPNKIFGVTTLDIVRANAFVAELKGLDPARVSVPVIGGHAGKTIIPLISQCTPKVDFPQDQLSTLTGRIQEAGTEVVKAKAGAGSATLSMAYAGARFVFSLVDAMNGKEGVVECSFVKSQETDCPYFSTPLLLGKKGIEKNLGIGKISPFEEKMIAEAIPELKASIKKGEEFVKNMK"}, "B2": {"name": "malate dehydrogenase, mitochondrial (protein)", "chain": "B1 chain", "modifications": "10 mM acetyl-CoA"}, "B3": {"name": "malate dehydrogenase, mitochondrial (protein)", "chain": "B1 chain", "modifications": "10 mM NAD+"}, "B4": {"name": "malate dehydrogenase, mitochondrial (protein)", "chain": "B1 chain", "modifications": "10 mM fumarate"}},
  "key": {"[1]": {"molecular_target": "Mitochondrial citrate synthase (CS) (UniProt P00889)", "assay": "Microscale thermophoresis (MST), Monolith NT.115, nano-red excitation, MST power 40%, excitation power 80%", "settings": "23 °C, 0.1 M potassium phosphate, no further salt stated, 0.1 M potassium phosphate at pH 6, 7 or 8 (the same buffer species at all pH values)"}, "[2]": {"molecular_target": "T1, citrate synthase, mitochondrial (Sus scrofa, UniProt P00889)", "T1 chain": "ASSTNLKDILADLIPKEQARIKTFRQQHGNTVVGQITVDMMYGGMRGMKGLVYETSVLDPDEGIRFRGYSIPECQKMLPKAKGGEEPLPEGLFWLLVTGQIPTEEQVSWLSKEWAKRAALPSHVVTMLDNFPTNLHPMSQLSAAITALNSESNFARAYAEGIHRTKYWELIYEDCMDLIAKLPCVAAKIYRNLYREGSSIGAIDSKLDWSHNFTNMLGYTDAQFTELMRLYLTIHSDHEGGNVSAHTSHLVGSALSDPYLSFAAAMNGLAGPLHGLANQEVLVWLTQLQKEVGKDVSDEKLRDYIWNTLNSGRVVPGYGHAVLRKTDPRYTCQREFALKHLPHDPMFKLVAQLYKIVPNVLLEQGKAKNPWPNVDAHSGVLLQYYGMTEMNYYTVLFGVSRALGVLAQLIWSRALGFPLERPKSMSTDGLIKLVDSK", "assay": "MST"}, "[3]": {"molecular_target": "T1, citrate synthase, mitochondrial", "assay": "MST (pH 6)"}, "[4]": {"molecular_target": "T1, citrate synthase, mitochondrial", "assay": "MST (pH 7)"}},
  "data": [
    {"molecule": "Mitochondrial malate dehydrogenase (MDH), fluorescently labelled", "values": [
      {"measurement": "Kd", "setting": "[1]; pH 6", "value": "0.68 ± 0.05", "unit": "µM"},
      {"measurement": "Kd", "setting": "[1]; pH 7", "value": "1.60 ± 0.45", "unit": "µM"},
      {"measurement": "Kd", "setting": "[1]; pH 8", "value": "2.29 ± 0.46", "unit": "µM"}
    ]},
    {"molecule": "B1", "values": [
      {"measurement": "Kd", "setting": "[2]", "value": 2.29, "unit": "µM"},
      {"measurement": "Kd", "setting": "[3]", "value": 0.68, "unit": "µM"},
      {"measurement": "Kd", "setting": "[4]", "value": 1.6, "unit": "µM"}
    ]},
    {"molecule": "B2", "values": [
      {"measurement": "Kd", "setting": "[2]", "value": 1.1, "unit": "µM"}
    ]},
    {"molecule": "B3", "values": [
      {"measurement": "Kd", "setting": "[2]", "value": 0.89, "unit": "µM"}
    ]},
    {"molecule": "B4", "values": [
      {"measurement": "Kd", "setting": "[2]", "value": 1.58, "unit": "µM"}
    ]}
  ]
}
